Patent CN117866903A

Molecular target: T1, 生物素化的IL-17A of the IL-17A[Biotinylated] : IL-17RA Inhibitor Screening ELISA Kit (ACROBiosystems, EP-139) (UniProt Q16552)
T1 sequence (biotinylated, looked up): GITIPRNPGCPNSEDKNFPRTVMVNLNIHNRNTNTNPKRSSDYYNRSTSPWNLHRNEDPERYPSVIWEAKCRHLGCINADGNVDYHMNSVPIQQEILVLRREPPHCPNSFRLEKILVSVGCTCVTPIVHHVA
Assay: competition ELISA kit (ACROBiosystems EP-139): IL-17RA coated, biotinylated IL-17A, culture supernatant diluted 5-fold

B1: IL-17Nb secreted by C3-H10-MSC (1-C3-3-H10: Fc融合蛋白, VHH-(GGGGS)3-VHH-IgG4 Fc) (Fc fusion)
chain: DVQLVESGGGLVEPGESLRLSCAAPGEDLGYYAIAWFRQAPGKEREVVSCVTSSGSSTNYLSSVKDRFTISIDNAKNTVYLQMNSLKPEDTAVYYCASTILLCSDYISAFGTWGQGTQVTVASGGGGSGGGGSGGGGSEVQLVESGGGLVQPGGSLRLSCAASGFSIHIYAMGWYRQAPGKQRELVATITRGGVTNNADSVKGRFTISRDNAKNTAYLQMNSLKPEDTAVYYCNAGGTNGGYWGQGTQVTVSSAPEFLGGPSVFLFPPKPKDTLMISRTPEVTCVVVDVSQEDPEVQFNWYVDGVEVHNAKTKPREEQFNSTYRVVSVLTVLHQDWLNGKEYKCKVSNKGLPSSIEKTISKAKGQPREPQVYTLPPSQEEMTKNQVSLTCLVKGFYPSDIAVEWESNGQPENNYKTTPPVLDSDGSFFLYSRLTVDKSRWQEGNVFSCSVMHEALHNHYTQKSLSLSLGK
- 结合抑制率: 58%
